Data taken from the DeepSol protein solubility set.

experiment: soluble on expression in E. coli; label from the status in PepcDB or PDB records

Row | Sequence | soluble on expression in E. coli
1 | MGSDKIHHHHHHMSKSEQISHMTDVMAKFVGYTGKVLPDDVTAKLEDLHKKETSKLADVIFTTMIENQRLAKELDRPSCQDTGVIQFLVECGTNFPLIGELEALLREAVIKATVDSPLRHNSVETFDEYNTGKNVGKGTPTVFWEIVPNSDQCSIYTYMAGGGCSLPGKAMVLMPGAGYEGVTRFVLDVMTSYGLNACPPLLVGVGVATSVETAALLSKKALMRPIGSHNENERAASLEKMLEDGINKIGLGPQGMSGNTSVMGVNIENTARHPSTIGVAVNVGCWSHRKGHIVFDAALNYTITSHSGVNF | not soluble
2 | MGSDKIHHHHHHARIVYLNHCYPSPKVITYTDNDTIKLGNYEIKQTGWEWGDGSLLKEKCPDYAYDQTDDGSEYPFDSVRVGFITLSVTKVKDDTTSLDLTSLAFEMGTNGDQYDMELFFALNPTLEALEIKLNAGEDVSFVIPYIMDEQQVSKKDWSRVDKMKLYMVLQYYPQKIRLCCN | not soluble
3 | MSTSVKHREFVGEPMGDKEVTCIAGIGPTYGTKLTDAGFDKAYVLFGQYLLLKKDEDLFIEWLKETAGVTANHAKTAFNCLNEWADQFM | not soluble
4 | MMALDDTVTIKPIRAEHVESFHRALDAVSRERKYLSFLEAPPLEAVRAFVLDMIENDHPQFVAIADGDVIGWCDIRRQDRATRAHCGTLGMGILPAYRNKGLGARLMRRTLDAAHEFGLHRIELSVHADNARAIALYEKIGFAHEGRARDAVSIDGHYIDSLNMAIIFGN | soluble
5 | MGSDKIHHHHHHMPLLIDIRKLTLITRLIQDGAEQVADSLATLAGVDAAVEIKSLSFVQPEDIATEMGGGTIYSARVRLTEPPYGVFLMTFETETAAEIAELMTGSSVEDGFTQLHESALQEMCNILTSGFIDGIANTLNATINMGTPTVVQDDATEIADKALSHVRRDSLTIVLDSLVDIKESDVAFSLRIFLIPDPGSFVHLIDQLDYDTDRETHISADTDAVKELDMSGDADALDAFDSSK | not soluble
6 | MAHHHHHHMAPSELHKLSYWEEVYQGEKENYEEANIQPEEWFEENCDKIINWMSNHFSEEEKKEQVAILDVGCGNGLFLHKLHQRGFGNLCGFDFSASAIELAKKLFVGCGGEGEEDSRINRGEEPTDVYVQVLDIYNIEDEIKENSKLKKKYKLINDKGTFDIFFMNDKAQEYFKHVSFFFQVDTIFCLTSCNACKEELLSIVNHFNETNGKFQLTLFDEIRYESITFGGVKGQIITTLIFACS | soluble
7 | LDNAPLLELDVQEWVNHEGLSNEDLRGKVVVVEVFQMLCPGCVNHGVPQAQKIHRMIDESQVQVIGLHSVFEHHDVMTPEALKVFIDEFGIKFPVAVDMPREGQRIPSTMKKYRLEGTPSIILADRKGRIRQVQFGQVDDFVLGLLLGSLLSETD | not soluble
8 | MAHHHHHHMLDFLDTINKYTLRSGSVTHIGGKISKKCAAQLVGSLVLQGRLNHYCAALAAQFMVSSEVLVVASRDAVQGISCEGCTLERQNLSSVPDTGEIFGVATTGNNVVVGYSAGVAMFSCKLELEKIYTLSEYTNSILGIAVTPDGSCLATGGANAIVTVWSRDMNPVHYLAGHTDWVRFVKFTIMDGRGLELFSTGDDGLVLHWDPLVGTLLSRIDFFHGQDIHAFEVSWRTGLIGIARDTPTICLYKPQISGIASNHAVGAVRLEQIGRIDDAHHSVLTALRFSNDSQWIVSAGEDETLSVSSVCQLKRVFVCETFIVRRHCMTFMNTFTSVCVLASPPESSAIIVVACATDGTVVQWVVNPETFKCTYTKKLQLL | not soluble
9 | MSNIFLSLEPKILWSHFYRLTQIPRPSGHEEAVRTYVADVAKRCGLEWLVDEAGNIIVRKPASAGMERRRGVILQAHLDMVPQKNAGTAHDFTKDPIDAVIDGEWVHARGTTLGADNGIGVAAALAVLESDDLRHGPLEALFTVNEEAGMTGALGLKPGVLRGDILLNLDSEDEGELFIGCAGGLDGTMRFDYSCEPLPPGYSGIEIRVSGLRGGHSGMDIDLGRGNANKIMNRLLQMGREHHGLLLASIDGGSLRNAIPRESVALVAVPSAQKVAFLDELHSLASAIGLELNGVDPELRVEAADAALPVGMIDDTVAQRLFDAVAACPNGVHRMSEAMAGLVETSNNLARVHSDGRAVSVECLLRSASVEGMRELADAVAGIAERAGTVAAFENGYPGWKPNPASPILKCMVKVYRDRFGKTPEIRAVHAGLECGIIGANNPQLDMISFGPTIRHPHSPDEKVECSSVLKFWELLVATLEEVPEPLEHHHHHH | not soluble
10 | MGLSVVILAAGKGSRMNSNKPKVLQTLAAKTLIEHVVSSVEKLNPDNIVVVTGHLKEQVEDALQGRNITFVYQQQQLGTGHAVLQALPYLKEQKVLILYGDVPLISTEVLENLVDTTNDDDLGVLTAFVENPQGLGRIVRDKFGAVTEIVEEKDANDIQRQIKEINTGIYCVHKNLLQKWLPEIKANNVQKEYYLTDIITFAKADHVSINVTHPINEFEILGVNDRTQLASLERVWQRNVAEKIMAKGVSIADPNRFDVRGNLDVGKDCWIDINVIIKGNVKLGNNVVIGANCILKNCIIEDNVRIKSNSMVDGSIIREGAIVGPFARVRPECDVKEGAVIGNFVEAKKTILGKGSKASHLTYLGDSEIGANCNIGAGVITCNYDGVNKHKTVIGDYAFIGSDSQLIAPVNIGQGATVGAGSTIVKDVPADNLAISRARQRHIDTWQRSVKKTDK | not soluble
11 | MSTGRTAITQPLRRLMRCSRALRRGTWPCSIGLQGIPIKSTPLQLRSCAQRLTFPGTSTGFLWEVWAMSYLRYVKIIGTVHVSPESVREVRETIIREKPDAIALELDYPRLLALLRRERLTLPQALKLGKMGIFGFILQELEMFFGRSFGESPGEEMIEAYKAAASLGIPVYLIDKPVNETLAGMLSSPPIEKLRFGIEVLASLLPGKLKELDYSYLMKEFREKFPHMYKVLVEERNLYMAINLMRIVDSLLEKKKKVKVVAVVGLGHKKGIERILNAHKPRAVKINSL | not soluble
12 | MSNRVVIDHIGASGHGISNISHDSLSVPFTLPGEVAIVALRGKYGKLIALEKKSSERIDAICQHFENCGGCVLQHWHADAYRSWKRQLVIDALKRYGIDVFVSPLIEGGYQNRRRITLTALATQKGHIVGFNRYLSHDVIALEECPVTRLEIMSKLNSIKLLCALVGNHTKRFQVTVTSVENGLDVAFNGCVVRDEHIRQQMIHTALAYGMTRLSVEGEILVEREKPLVYFGDVCVEFPAGGFLQATFEAENIMGNIILAYLEKAKNAVDLFSGLGTFTLRMAKKMNVHAVENNETALANLDRAARFATGLKTITCERRDLFRRPLSAKELSCFECVVFDPPRAGAQEQVRELAKTTIPRVVTISCNPVTFARDLSLLVAGGYTIEKIIPIDQFLWSPHVEIVALLSKRKIKANWKL | not soluble
13 | MSLSGKDLGRAIEQAINKKIASGSVKSKAEVARHFKVQPPSIYDWIKKGSISKDKLPELWRFFSDVVGPEHWGLNEYPIPTPTNSDTKSELLDINNLYQAASDEIRAIVAFLLSGNATEPDWVDHDVRAYIAAMEMKVGKYLKALESERKSQNITKTGTEGHHHHHH | soluble
14 | MSLGNSYAGQLKTTRFEEVLHNSIEASLRSNNLVPRPIFSQLYLEAEQQLAALEGGSRVDNEEEEEEGEGGLETNGPPNPFQLHPLPEGCCTTDGFCQAGKDLRLVSISNEPMDVPAGFLLVGVKSPSLPDHLLVCAVDKRFLPDDNGHNALLGFSGNCVGCGKKGFCYFTEFSNHINLKLTTQPKKQKHLKYYLVRNAQGTLTKGPLICWKGSEFRSRQIPASTCSSSLFPALESTAAFPSEPVPGTNPSILMGAQQAGPASDHPSLNAAMGPAVFNGKDSPKCQQLAKNNLLALPRPSALGILSNSGPPKKRHKGWSPESPSAPDGGCPQGGGNRAKYESAGMSCVPQVGLVGPASVTFPVVASGEPVSVPDNLLKICKAKPVIFKVFVNGATQMVALGPAEEGHHHHHH | not soluble
15 | MAHHHHHHMSQEEILQQTTGPSVPGKGVIVDDGTMEDIIDKLRILRYEKDFCPRVKPPFKPLSKYYFSGPSSIDNPNAQFHYFTSLCSWLMGLAGHNFEPPGQFDDPNATSTNILGELRAMNISAPNLAPNRIRQGNGEAVLTILSVLSDHALLKKGFTVRSVDYTNVEKYDELDGVTDADDDNGIGEEVEDNVMIESDDEEELYVRATGERLVKEDAGVPLESEINAEEWNLEVERVGPLLQVRSDALQDWRSRIESAGVLLRAVEKMYPEVKADASTCGG | not soluble
16 | MSLTSDTKEKVEYSTDKYKVETNRFWDNWFISVGAGGQVYFGDHDKQIDFGDRIAPALDIAIGKWFTPGIGIRFMYSGLKSKGATRDDWECDITHGTGEHVPGWAGVPGDDLQYSKYKMSNLHADVLFNVLNLFGGYNENRKWDLSPYAGLGWARVYDSPSSKEVSANLGILTSWHFCDVLALNLDVRGMFVNDRFDGEGGGRFGEGNLSATIGLTYKFKQRSWDRSKTVYRYNYGDLESMRRKLNDMSAENDRLKKALADGDKQKAQTIVKKIASANLVTFKINRTKLSNEARANLGLLAEIIKSGDPETVYTITGYADAGTGSSKGNERLSKERAENVYDCLVKEFGVSEKQLRIDYKGGVDNMFYNDPRLSRAVITRGEEGHHHHHH | not soluble
17 | MGIFSRFADIVNSNISALLDKAEDPEKMIRLIIQEMEDTLVEVRTNSAKAIADKKELARKVEMLEEQIGEWGQKASLALVKEREDLARAALIEKQKLEQVVKGLHTEQTLVEETINKLTGEIGKLENKIAETRAKQQALAIRNQTASNRRDVQKHLHTSRTNEAMAKFDQYSRKIDEMEAEADLYAQTGNAKSLEQEFAELQAQDEIEKELAKLKEQMSSQDKLEHHHHHH | soluble
18 | MGSSHHHHHHGKTIFVIVPTNEEQVAFLEALAKQDELNFDWQNPPTEPGQPVVILIPSDMVEWFLEMLKAKGIPFTVYVEEGGSENLYFQGGGGGGWPTEDPNELLKSQVWQKYHNQLNERKEYADKLLQDSNYIHRKNNPGE | soluble
19 | MNAERCEFIAGNSLIEVIPSISDDRPIHLISGDIGPFEAGVPCRIPVWTAILMKRKHNCKVVAPQWMDVDELKKILTSETESQGLAKLPDHFFEISHMLVRDAREDIFEVEAVKSLVQDIYDRRDAKLRSSAIEFLRQNQTCHAQLDNVQLIEASSARATLEACRQMGAVVRNKHESTPL | not soluble
20 | EVENNFPCSLYKDEIMKEIERESKRIKLNDNDDEGNKKIIAPRIFISDDKDSLKCPCDPEMVSNSTCRFFVCKCVERRAEVTSNNEVVVKEEYKDEYADIPEHKPTYDKM | soluble
21 | MMAIQASDMDISRFGSEIFRNSPRQSDLMIVSGTVTKKMAPRVRRIYDEMPYPKYVIAQGVCVIQGGPYNQGYSVVLGVDKVVPVDVYVPGCPPTPEALTNGIILLQKKIRGEADRLEHHHHHH | not soluble
22 | MGSDKIHHHHHHAKSYSKAVTKIAGTKNYPIYHKVTKNGPSGKFTSTSYFKYGQIQSKQYVSTKKGNFWNIIVDGRPVGWVSENCFARNTISVANDVSLVKNSDYSFNTRDAINYATDSHGTAIDPDRVQVSQASVSTKATTVNYSYGKAKASVNIDVRSGNDEMGEANVTPKSGFKTTTTWNGGSKGSSRNWNAAHHYTSETTSNTFKSNGLTLRTRLFQPRFVSLGYGQSADKMGQVGVIPEGMTVNGGIFATSMFTSSSDQHGHIVSYNLNTIKSKYAVQNLTTMNWSTFKSYANNIKVSPYIKLGHGQSLGSSSDYIYVMANDNNYNNGPRSEEIIQIRKSDMKINKIWTFRIAENRYIHNATFVGDNTMYALFHNGGHNHYEYWKLTRNGDSWKATEVGATAGSFVSNSPVQGFAYGNGSFFIGFNDNIFKVSENGAAQKHYRFNTGREIEGLSANGSDLYVQFAQRAELTQGRF | not soluble
